Consider six molecules from US20080286275A1 (ISTITUTO DI RICERCHE DI BIOLOGIA MOLECOLARE P ANGELETTI S P …, published 2008).

Experiment [1] addresses T1, human scavenger receptor class B type I (SR-B1) (human, UniProt Q8WTV0 1-467).
T1 construct: The same entry is used for all three; also called SR-BI; SR-B1 receptor
T1 sequence: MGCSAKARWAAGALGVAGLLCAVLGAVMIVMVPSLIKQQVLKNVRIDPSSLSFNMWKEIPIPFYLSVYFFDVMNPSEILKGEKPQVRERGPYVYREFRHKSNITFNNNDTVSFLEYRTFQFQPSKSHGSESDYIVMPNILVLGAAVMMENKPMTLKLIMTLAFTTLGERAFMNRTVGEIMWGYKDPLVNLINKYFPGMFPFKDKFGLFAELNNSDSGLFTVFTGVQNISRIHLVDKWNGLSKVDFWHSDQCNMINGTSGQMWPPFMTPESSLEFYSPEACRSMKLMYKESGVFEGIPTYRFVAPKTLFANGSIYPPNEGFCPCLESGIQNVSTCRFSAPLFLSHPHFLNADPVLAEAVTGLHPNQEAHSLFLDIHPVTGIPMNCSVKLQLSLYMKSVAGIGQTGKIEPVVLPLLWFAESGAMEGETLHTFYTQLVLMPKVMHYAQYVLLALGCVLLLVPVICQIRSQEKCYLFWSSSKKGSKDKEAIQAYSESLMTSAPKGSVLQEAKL
As to the kind of experiment: FACS competition on Cho7s cells expressing human SR-B1, IgG concentration varied (60-12-2.4 µg/ml), competitor His-tagged soluble E2.

In experiment [2] the target is T1, human scavenger receptor class B type I …. As to the kind of experiment: FACS competition on HepG2 cells, scFv concentration varied, competitor soluble E2.

B1: IgG4 molecule containing SEQ ID NO: 2 variable regions (antibody, V domains shown)
VH: QVQLQESGPGLVKPSETLSLNCTVSGGSISSSSYYWGWIRQPPGKGLEWIGSVYYTGNTYYNPSLKSRVTMSVDTSKNQFSLKLNSVTAADTAVYYCARHVLGGGWEVSQRFDYWGRGTLVTVSS
VL: not shown
notes: The primers may have added amino acids
In the case of B1, the binding result in experiment [1] is “binds”.

B2: IgG4 molecule containing SEQ ID NO: 4 variable regions (antibody, V domains shown)
VH: EVQLVQSGAEVRKPGTAVKISCKVAGDTFTDYFIYWLQQAPGKGPEWMGLIDPKDAQTIYAEKFQGRVAITADTSTDTAYMELSSLKSEDTAVYYCATDSVGSAGFDVWGQGTLVTVSS
VL: LPVLTQPPSASGAPGQRVTFSCSGSGSNIGSYTVNWYQQLPGAAPRLLMHTTDQRASGVPDRFSGSKSGTSASLAITGLQSEDEADYFCAAWDDSLDGPVFGGGTKLTVL
notes: as for B1
Consider B2, for which the binding result in experiment [1] was “binds”.

B3: single-chain antibody of SEQ ID NO: 3 (scFv)
scFv: EVQLVETGAEVKKPGSSVKVSCKASGDTLSSHAIIWVRQAPGQGLEWMGGIIPIFRTVNYAQKFQGRVTITADDSTSTAYMELNDLRSEDTAVYYCAKTLNEGLPWDYWGQGTLVTVSSGGGGSGGGGSGGGGSAQSVLTQPPGASGAPGQRVTISCSGDSSNIESYAVNWYQQVPGMAPKLLIYRDNQRPSGVPDRFSGSRSGTSASLAISGLQSEDEADYYCGSWDDNLNGPTFGGGTKVTVL
notes: VH-linker(Ser/Gly)-VL from the CAT phage library CS, produced outside the phage context
In the case of B3, in experiment [2], the binding result is on record as “binds”.

B4: single-chain antibody of SEQ ID NO: 1 (scFv)
scFv: EVQLVQSGAEVRKPGATVKISCKLTGDTFTDYFIFWLQLAPGKGLQWMGLIDPKDAQTIYAEKFQGRVAITADTSTDTAYMEVSSLRSEDTAVYYCATDSVGAAGFDVWGRGTMVTVSSGGGGSGGGGSGGGGSALPVLTQPPSASGAPGQRVTFSCSGSGSNIGSYTVNWYQQLPGAAPRLLMHTTDQRASGAPDRFSGSKSGTSASLAITGLQSEDEADYFCAAWDDSLDGPVFGGGTKLTVL
notes: as for B3
For B4, the binding result in experiment [2] was “binds”.

B5: single-chain antibody of SEQ ID NO: 2 (scFv)
scFv: QVQLQESGPGLVKPSETLSLNCTVSGGSISSSSYYWGWIRQPPGKGLEWIGSVYYTGNTYYNPSLKSRVTMSVDTSKNQFSLKLNSVTAADTAVYYCARHVLGGGWEVSQRFDYWGRGTLVTVSSGGGGSGGGGSGGGGSAQSVLTQPPSASGTPGQRVTISCSGSSSNIGSNPVNWYQQLPGTAPKLLIHTNNQRPSGVPDRFSGSKSGTSASLAISGLLSEDEADYYCAAWDDSLNAYVFGTGTKVTVL
notes: VH-linker(Ser/Gly)-VL from the CAT phage library CS, produced outside the phage context; also called scFVC11
As for B5, in experiment [2], the binding result is “binds”.

B6: single-chain antibody of SEQ ID NO: 4 (scFv)
scFv: EVQLVQSGAEVRKPGTAVKISCKVAGDTFTDYFIYWLQQAPGKGPEWMGLIDPKDAQTIYAEKFQGRVAITADTSTDTAYMELSSLKSEDTAVYYCATDSVGSAGFDVWGQGTLVTVSSGGGGSGGGGSGGGGSALPVLTQPPSASGAPGQRVTFSCSGSGSNIGSYTVNWYQQLPGAAPRLLMHTTDQRASGVPDRFSGSKSGTSASLAITGLQSEDEADYFCAAWDDSLDGPVFGGGTKLTVL
notes: as for B3
For B6, the binding result in experiment [2] was “binds”.
